Assay [1] deals with RSV F protein, C-terminal truncated, secreted from recombinant baculovirus (respiratory syncytial virus) (UniProt P03420). Kind of assay: SPR (BIAcore), F protein amine-coupled, Kd = kd/ka.
For assay [2] the target is unchanged. The assay can be described thus: SPR (BIAcore), F protein amine-coupled, Mab injected 25-300 nM.
The target of assay [3] is T1, RSV F protein, C-terminal truncated, secreted from recombinant baculovirus (respiratory syncytial virus, UniProt P03420 26-524).
T1 construct: also called RSV F glycoprotein; RSV F antigen
The assay is described as above.

As for “chimeric 1129 antibody (murine 1129 VH and VL joined to human C-gamma 1 and C-kappa)”, the Kd in assay [1] stood at 1.5 nM. Moreover, in assay [2], the dissociation rate constant (koff) came out at 7.5e-05 s⁻¹, the kon stood at 50000 M⁻¹ s⁻¹ and the t1/2 is 2.6 h.
As for murine monoclonal antibody MAb 1129, the Kd in assay [1] was determined as 11.4 nM. Besides, in assay [2], the kon came to 35000 M⁻¹ s⁻¹ and the t1/2 amounted to 0.48 h.

B1: humanized 1308F antibody (CDR-grafted MAb 1308F, human HV3 VH / K102 VL frameworks, human IgG1 kappa) (antibody, V domains shown)
VH: QVQLVQSGAEVKKPGASVKVSCKASGFNIKDYYIYWVRQAPGQGLEWIGWIDPENGNTVFDPKFNGRVTMTRDTSTSTVYMELSSLRSEDTAVYYCAYYGTSSFDFWGQGTTLTVSS
VL: DIQMTQSPSTLSASVGDRVTITCKASQDINRYLNWYQQKPGKAPKLLIYRANRLVDGVPSRFSGSGSGTEFTLTISSLQPDDFATYYCLQFHEFPYTFGGGTKLEIL
Turning to B1, the t1/2 in assay [3] was 3.5 h.

B2: humanized 1129 antibody (CDR-grafted MAb 1129, human COR VH / K102 VL frameworks, human IgG1 kappa) (antibody, V domains shown)
VH: QVTLRESGPALVKPTQTLTLTCTFSGFSLSTSGMSVGWIRQPPGKALEWLADIWWDDKKDYNPSLKSRLTISKDTSKNQVVLKVTNMDPADTATYYCARSMITNWYFDVWGAGTTVTVSS
VL: DIQMTQSPSTLSASVGDRVTITCKCQLSVGYMHWYQQKPGKAPKLWIYDTSKLASGVPSRFSGSGSGTEFTLTISSLQPDDFATYYCFQGSGYPFTFGGGTKLEIK
B2: the t1/2 in assay [3] amounted to 2.8 h.

B3: murine monoclonal antibody MAb 1308F (antibody, V domains shown)
VH: EVQKQQSGAELVRPGALVKLSCKASGFNIKDYYIYWVKQRPEQGLEWIGWIDPENGNTVFDPLFQGKASITSDTSSNTAYLQLSSLTSEDTAVYYCAYYGTSSFDFWGQGTTLTVSS
VL: DIKMTQSPSSMYVSLGERVTITCKASQDINRYLNWFQQKPGKSPKTLIHRANRLVDGVPSRFSGSGSGQEYSLTISSLEFEDMGIYYCLQFHEFPYTFGGGTKLEIL
Take B3: in assay [3], the t1/2 came out at 5.1 h.

Source of the values: patent US20020102257A1 (published 2002).
